Tests used:
RB200 [1] = target: T1, RB200 (human, UniProt P00533 25-645; P21860 20-643); experiment: 125I-NRG1-β saturation binding, heterodimer immobilised on anti-Fc coated plate
T1 construct: extracellular domain; Purified over Ni-Sepharose, so a His tag is likely on one chain, but none is described; also called parent heterodimer RB200; EGFR/HER3 heterodimer

RB200 [2] = target: T1, RB200; experiment: Eu-NRG1-β saturation binding (DELFIA), purified heterodimer immobilised on anti-human Fc plate
Description: (§1) Plates were incubated at RT for 2 hrs and then rinsed 3 times with DELFIA wash buffer. […] The plates were incubated at RT for 2 hrs followed by three quick rinse with ice-cold Delfia wash buffer containing0.02% Tween-20. To quantify bound Eu-ligands 130 μl/well of Delfia enhancement solution was added and the plates were read on a fluorescence plate reader (Envision, model 2100, PerkinElmer).

HER3:Fc mutant K415S = target: T2, HER3:Fc mutant K415S (human, UniProt P21860 20-643); experiment: HER3:Fc mutant ligand binding screen
T2 construct: extracellular domain

HER3:Fc mutant C481R = target: T3, HER3:Fc mutant C481R (human, UniProt P21860 20-643); experiment: HER3:Fc mutant ligand binding screen
T3 construct: extracellular domain

HER3:Fc mutant A439D = target: T4, HER3:Fc mutant A439D (human, UniProt P21860 20-643); experiment: HER3:Fc mutant ligand binding screen
T4 construct: extracellular domain

HER3:Fc mutant F96L = target: T5, HER3:Fc mutant F96L (human, UniProt P21860 20-643); experiment: HER3:Fc mutant ligand binding screen
T5 construct: extracellular domain

HER3:Fc mutant H565E = target: T6, HER3:Fc mutant H565E (human, UniProt P21860 20-643); experiment: HER3:Fc mutant ligand binding screen
T6 construct: extracellular domain

HER3:Fc mutant S438T = target: T7, HER3:Fc mutant S438T (human, UniProt P21860 20-643); experiment: HER3:Fc mutant ligand binding screen
T7 construct: extracellular domain

HER3:Fc mutant D343L = target: T8, HER3:Fc mutant D343L (human, UniProt P21860 20-643); experiment: HER3:Fc mutant ligand binding screen
T8 construct: extracellular domain

HER3:Fc mutant L102S = target: T9, HER3:Fc mutant L102S (human, UniProt P21860 20-643); experiment: HER3:Fc mutant ligand binding screen
T9 construct: extracellular domain

HER3:Fc mutant D343H = target: T10, HER3:Fc mutant D343H (human, UniProt P21860 20-643); experiment: HER3:Fc mutant ligand binding screen
T10 construct: extracellular domain

HER3Y246A:Fc = target: T11, HER3Y246A:Fc (human, UniProt P21860 20-643); experiment: HER3:Fc mutant ligand binding screen
T11 construct: extracellular domain; Screened as an Fc fusion homodimer in conditioned medium

HER3:Fc mutant L48Y = target: T12, HER3:Fc mutant L48Y (human, UniProt P21860 20-643); experiment: HER3:Fc mutant ligand binding screen
T12 construct: extracellular domain

HER3:Fc mutant N103K = target: T13, HER3:Fc mutant N103K (human, UniProt P21860 20-643); experiment: HER3:Fc mutant ligand binding screen
T13 construct: extracellular domain

HER3:Fc mutant Y436L = target: T14, HER3:Fc mutant Y436L (human, UniProt P21860 20-643); experiment: HER3:Fc mutant ligand binding screen
T14 construct: extracellular domain

HER3:Fc mutant S18T = target: T15, HER3:Fc mutant S18T (human, UniProt P21860 20-643); experiment: HER3:Fc mutant ligand binding screen
T15 construct: extracellular domain

HER3:Fc mutant D325N = target: T16, HER3:Fc mutant D325N (human, UniProt P21860 20-643); experiment: HER3:Fc mutant ligand binding screen
T16 construct: extracellular domain

HER3:Fc mutant D343F = target: T17, HER3:Fc mutant D343F (human, UniProt P21860 20-643); experiment: HER3:Fc mutant ligand binding screen
T17 construct: extracellular domain

HER3:Fc mutant G563Q = target: T18, HER3:Fc mutant G563Q (human, UniProt P21860 20-643); experiment: HER3:Fc mutant ligand binding screen
T18 construct: extracellular domain

HER3:Fc mutant V19Q = target: T19, HER3:Fc mutant V19Q (human, UniProt P21860 20-643); experiment: HER3:Fc mutant ligand binding screen
T19 construct: extracellular domain

HER3:Fc mutant D343I = target: T20, HER3:Fc mutant D343I (human, UniProt P21860 20-643); experiment: HER3:Fc mutant ligand binding screen
T20 construct: extracellular domain

RB200 [3] = target: T1, RB200; experiment: displacement of Eu-EGF from immobilised RB200 by unlabeled HB-EGF
Description: as §1

RB242 = target: T21, RB242 (human, UniProt P00533 25-645; P21860 20-643); experiment: displacement of Eu-EGF from immobilised RB242 by unlabeled HB-EGF
T21 construct: extracellular domain; purified to about 95% homogeneity; also called optimized hermodulin variant RB242
Description: as §1

B1: NRG1-β (ligand, UniProt Q02297-6 177-241, looked up)
chain: SHLVKCAEKEKTFCVNGGECFMVKDLSNPSRYLCKCPNEFTGDRCQNYVMASFYKHLGIEFMEAE
notes: also called NRG1β1; NRGβ1
In the case of B1, the Kd (RB200 [1]) is reported as 12.3 nM, the Kd (RB200 [2]) is reported as 3.1 nM and the binding result (HER3:Fc mutant K415S) is reported as “no binding”. B1: no binding (HER3:Fc mutant C481R); no binding (HER3:Fc mutant A439D); no binding (HER3:Fc mutant F96L). B1: no binding (HER3:Fc mutant H565E); no binding (HER3:Fc mutant S438T); no binding (HER3:Fc mutant D343L). B1: no binding (HER3:Fc mutant L102S); no binding (HER3:Fc mutant D343H); binds (HER3Y246A:Fc). B1: no binding (HER3:Fc mutant L48Y); no binding (HER3:Fc mutant N103K); no binding (HER3:Fc mutant Y436L). B1: no binding (HER3:Fc mutant S18T); no binding (HER3:Fc mutant D325N); no binding (HER3:Fc mutant D343F). B1: no binding (HER3:Fc mutant G563Q); no binding (HER3:Fc mutant V19Q); no binding (HER3:Fc mutant D343I).

B2: HB-EGF (ligand, UniProt Q99075 63-148, looked up)
chain: DLQEADLDLLRVTLSSKPQALATPNKEEHGKRKKKGKGLGKKRDPCLRKYKDFCIHGECKYVKELRAPSCICHPGYHGERCHGLSL
B2 gave a Ki (RB200 [3]) of 20.1 nM and a Ki (RB242) of 1.3 nM.
